Test results as given in IntAct's records for PubMed 20388642.

B1: Ras-related protein Rab-8A (Homo sapiens), P61006 (parent)
chain: MAKTYDYLFKLLLIGDSGVGKTCVLFRFSEDAFNSTFISTIGIDFKIRTIELDGKRIKLQIWDTAGQERFRTITTAYYRGAMGIMLVYDITNEKSFDNIRNWIRNIEEHASADVEKMILGNKCDVNDKRQVSKERGEKLALDYGIKFMETSAKANINVENAFFTLARDIKAKMDKKLEGNSPQGSNQGVKITPDQQKRSSFFRCVLL

Variants of: B1
Settings: with optn_human OPTN

Variant | effect of a mutation on the interaction
MAKTYDYLFKLLLIGDSGVGKNCVLFRFSEDAFNSTFISTIGIDFKIRTIELDGKRIKLQIWDTAGQERFRTITTAYYRGAMGIMLVYDITNEKSFDNIRNWIRNIEEHASADVEKMILGNKCDVNDKRQVSKERGEKLALDYGIKFMETSAKANINVENAFFTLARDIKAKMDKKLEGNSPQGSNQGVKITPDQQKRSSFFRCVLL [T22N] | decreasing interaction
